Results from the supplement of paper PMC7125110.
± gives the standard error. Variants at the floor of the assay were thinned out.

B1: glmS ribozyme (parent)
chain: AUAAAAGCGCCAGAACUACAGAAAUGUAGUUGACGAGGAGGAGGUUUAUCGAAUUUUCGGCGGAUGCCUCCAAA

What was measured:
Details in all cases: with glucosamine-6-phosphate
glucosamine-6-phosphate [1] = variants of: B1; experiment: self-cleavage kobs at 40 uM GlcN6P; higher = faster cleavage; RNA array
How it was run: (§1)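 Glucosamine-6-phosphate in HEPES/KCl/Mg(OAc)2 buffer, at 40 μM to 10 mM, was flowed over barcoded ribozyme variants transcribed in situ by E. coli RNA polymerase on sequenced MiSeq chips. Tracking was through a hybridised Cy3 probe at 37 °C. kobs, kcat and KM came from exponential decay fits and weighted Michaelis–Menten fits of normalised per-tile medians.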

glucosamine-6-phosphate [2] = variants of: B1; experiment: self-cleavage kobs at 2500 uM GlcN6P; higher = faster cleavage; RNA array
How it was run: as §1

glucosamine-6-phosphate [3] = variants of: B1; experiment: self-cleavage kobs at 10000 uM GlcN6P; higher = faster cleavage; RNA array
How it was run: as §1

glucosamine-6-phosphate [4] = variants of: B1; experiment: self-cleavage kobs at 160 uM GlcN6P; higher = faster cleavage; RNA array
How it was run: as §1

glucosamine-6-phosphate [5] = variants of: B1; experiment: self-cleavage kobs at 640 uM GlcN6P; higher = faster cleavage; RNA array
How it was run: as §1

Variant | self-cleavage kobs at 40 uM GlcN6P (glucosamine-6-phosphate [1]) [s⁻¹] | self-cleavage kobs at 2500 uM GlcN6P (glucosamine-6-phosphate [2]) [s⁻¹] | self-cleavage kobs at 10000 uM GlcN6P (glucosamine-6-phosphate [3]) [s⁻¹] | self-cleavage kobs at 160 uM GlcN6P (glucosamine-6-phosphate [4]) [s⁻¹] | self-cleavage kobs at 640 uM GlcN6P (glucosamine-6-phosphate [5]) [s⁻¹]
A14G C50G C68U U69A C71G | 0.000105 ± 1.7e-05 | 0.000379 ± 8.1e-05 | 0.000199 ± 5.1e-05 |  | 
A15C U31C G51C U56G C70G | < 1e-05 |  | < 1e-05 |  | 
U54A C67U | 0.000285 ± 9.7e-05 | 0.00976 ± 0.0027 | 0.00584 ± 0.0013 | 0.000312 ± 9.1e-05 | 0.00116 ± 0.00032
G35U A64C C68A | < 1e-05 |  |  |  | 
G29A A39U U69A | < 1e-05 |  |  |  | 
G37U G43U | < 1e-05 |  | < 1e-05 |  | < 1e-05
C8G U57G C70G | 0.0017 ± 0.00055 |  |  |  | 
G38C A42G | < 1e-05 | < 1e-05 | < 1e-05 | < 1e-05 | < 1e-05
A15C U55A C61G | < 1e-05 |  | < 1e-05 |  | 
C10G G63C | < 1e-05 | < 1e-05 |  | < 1e-05 | < 1e-05
A15C C50G G62U | 4.56e-05 ± 2.2e-05 | 0.000111 ± 3.3e-05 |  |  | 6.39e-05 ± 2.8e-05
U49C U65C | < 1e-05 |  | < 1e-05 |  | < 1e-05
U46G U65A C70U | 8.31e-05 ± 1.9e-05 |  | 0.00117 ± 0.00024 |  | 
C8U G35C | < 1e-05 | < 1e-05 | < 1e-05 | < 1e-05 | 
G13U A15U G43C U57C C58G | < 1e-05 |  |  |  | 
A15G G37C | < 1e-05 |  | 4.76e-05 ± 6.4e-06 |  | 
A12G G13A C61G | < 1e-05 |  | < 1e-05 |  | 
A12U U45C | 0.000226 ± 3.6e-05 | 0.00428 ± 0.0016 | 0.00628 ± 0.001 |  | 
C11G A15U C34G A39U A48G | < 1e-05 | < 1e-05 |  |  | < 1e-05
C11U A52U G60C | < 1e-05 |  | < 1e-05 |  | < 1e-05
G7U A14U A48G U56C A64U G66U | < 1e-05 |  | < 1e-05 |  | 
C11A G29U C50G | 6.35e-05 ± 1.7e-05 | 5.28e-05 ± 2.3e-05 |  | 0.000296 ± 0.00011 | 
G41C G51A A52U C67A | < 1e-05 |  | < 1e-05 |  | 
A33G A64U | < 1e-05 |  | < 1e-05 |  | 

Variant | self-cleavage kobs at 40 uM GlcN6P (glucosamine-6-phosphate [1]) [s⁻¹] | self-cleavage kobs at 2500 uM GlcN6P (glucosamine-6-phosphate [2]) [s⁻¹] | self-cleavage kobs at 10000 uM GlcN6P (glucosamine-6-phosphate [3]) [s⁻¹] | self-cleavage kobs at 160 uM GlcN6P (glucosamine-6-phosphate [4]) [s⁻¹] | self-cleavage kobs at 640 uM GlcN6P (glucosamine-6-phosphate [5]) [s⁻¹]
G43U C61G | < 1e-05 | < 1e-05 | < 1e-05 |  | < 1e-05
G43U C61A | < 1e-05 | < 1e-05 | < 1e-05 | < 1e-05 | < 1e-05
C8A A14G C58U | < 1e-05 |  | < 1e-05 |  | 
U49C G59U | < 1e-05 |  | < 1e-05 | < 1e-05 | < 1e-05
A6G A15U C16U A39G C70U | < 1e-05 |  |  |  | < 1e-05
C11A C16A U47C C61U | < 1e-05 | < 1e-05 |  |  | 
A15G C16G A33G A52G G60A | < 1e-05 |  | < 1e-05 | < 1e-05 | 
G7A C34G U56C | < 1e-05 |  |  |  | 
A15G C71G | 0.000107 ± 1.2e-05 | 0.00214 ± 0.00045 |  | 0.000256 ± 4.1e-05 | 0.00066 ± 8.8e-05
A12U G29A | 0.00084 ± 0.00025 | 0.00409 ± 0.0011 | 0.041 ± 0.012 | 0.000905 ± 0.0002 | 0.00253 ± 0.00054
A6G A53C C58A C61A | < 1e-05 |  | < 1e-05 |  | 
A14U U56C | 5.38e-05 ± 1.8e-05 | 0.000307 ± 7.6e-05 | 0.00138 ± 0.00027 |  | 0.000234 ± 4.8e-05
G7A A52U A64G C71A | < 1e-05 | < 1e-05 |  | < 1e-05 | < 1e-05
C34U A42C | < 1e-05 | < 1e-05 | < 1e-05 |  | < 1e-05
G9A G29A U31A G35U A36C C70U | < 1e-05 |  | < 1e-05 |  | 
G38C C67U | < 1e-05 | < 1e-05 | < 1e-05 |  | 
G41A U49G C67U C71U | < 1e-05 |  | < 1e-05 |  | 
C8A C50U C67G | < 1e-05 |  |  |  | 
C34G G40C | < 1e-05 |  | < 1e-05 |  | < 1e-05
C11A A12C G44C U49A | < 1e-05 | < 1e-05 | < 1e-05 | < 1e-05 | < 1e-05
G37A G38U C50G C67U | 8.1e-05 ± 3.5e-05 |  | 0.000315 ± 8.1e-05 |  | 
U30C A39C G41U | < 1e-05 |  | < 1e-05 |  | 
A14C U57C U69C | < 1e-05 |  |  |  | 
C16A A36C G51A A53U U69G | 6.48e-05 ± 2.5e-05 |  | 4.91e-05 ± 1.6e-05 |  | 
